Paper PMC4570271, “Resolution of structure of PIP5K1A reveals molecular mechanism for its regulation by dimerization and dishevelled” (Nature Communications, 2015)

T1: zebrafish PIP5K1A kinase catalytic domain (residues 49-431), wild type (zebrafish, UniProt Q503I3 49-431)
T1 chain: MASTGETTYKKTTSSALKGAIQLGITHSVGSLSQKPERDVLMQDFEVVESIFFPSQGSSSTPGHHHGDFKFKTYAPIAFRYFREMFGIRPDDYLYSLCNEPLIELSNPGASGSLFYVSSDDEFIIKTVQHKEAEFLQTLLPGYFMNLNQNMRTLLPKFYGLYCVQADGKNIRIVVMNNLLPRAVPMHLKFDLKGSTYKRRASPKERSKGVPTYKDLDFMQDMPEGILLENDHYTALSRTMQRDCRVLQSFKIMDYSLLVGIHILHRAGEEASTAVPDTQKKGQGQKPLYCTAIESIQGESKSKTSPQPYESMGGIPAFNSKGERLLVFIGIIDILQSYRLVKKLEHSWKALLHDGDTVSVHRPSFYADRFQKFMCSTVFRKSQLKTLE

B1: zebrafish PIP5K1A kinase catalytic domain (residues 49-431), wild type (domain or fragment)
chain: T1 chain
notes: kinase catalytic domain of zebrafish PIP5K1Aα, residues 49-431; C-terminal 'Leu-Glu' that precedes the His6 tag; Dimer by SEC/MALLS and in the crystal; also called zPIP5K1A; PIP5K1A kinase domain; not shown: His6, C-terminal, kept
B2: GST-tagged DIX domain of mouse DVL1 (residues 1-106) with Y17D (domain or fragment, UniProt P51141 1-106, looked up)
chain: MAETKIIYHMDEEETPDLVKLPVAPERVTLADFKNVLSNRPVHAYKFFFKSMDQDFGVVKEEIFDDNAKLPCFNGRVVSWLVLAEGAHSDAGSQGTDSHTDLPPPL
notes: DIX domain of mouse DVL1, residues 1-106, Y17D to eliminate DIX aggregation; A longer construct 1-200 (DIX-L) is named in the methods but tied to no experiment; also called DVL DIX; GST-DVL; source: E. coli, purified (glutathione-agarose beads, size-exclusion chromatography)

What was measured:
[1] = biological target: B2; assay: cell-based or functional assay
[2] = biological target: the molecule itself; assay: SEC-MALS; Superdex S-200 10/30 HR; 10 mM HEPES (pH 7.3), 300 mM NaCl, 5% glycerol, 0.01% TX-100; 0.5 ml/min
[3] = biological target: T1, zebrafish PIP5K1A kinase catalytic …; assay: ITC
[4] = biological target: B1; assay: pull-down; GST-DIX (or GST) 0.5 μg and His-tagged PIP5K1 0.5 μg in 200 μl of 10 mM HEPES (pH 7.4), 150 mM NaCl, 0.2% Triton, 0.01% SDS, 3 mM dithiothreitol, 10% glycerol; 4 °C overnight; glutathione beads; western blotting; conditions: both partners purified
[5] = biological target: T2, zebrafish PIP5K1A kinase catalytic domain, triple D84R/L86A/V291A (DLV) mutant (zebrafish, UniProt Q503I3 49-431, D84R | L86A | V291A); assay: as above; conditions: both partners purified
T2 construct: kinase catalytic domain of zebrafish PIP5K1Aα, residues 49-431; C-terminal 'Leu-Glu' that precedes the His6 tag; Monomeric by SEC/MALLS; also called monomeric mutant DLV; TM-PIP5K; source: E. coli BL21-CodonPlus(DE3)-RIL, purified in the same way as the wild-type protein; not shown: His6, C-terminal, kept

| Binder | fold activation of the lipid kinase activity by DIX [1] | stoichiometry N [2] | Kd [3] | binding result [4] | binding result [5] |
| --- | --- | --- | --- | --- | --- |
| B1 | 3 fold | 2 |  |  |  |
| B2 |  |  | 1200 nM | binds | binds |
